Where a chain is given by its changes, count along the chain named.
Assays:
[1] = target: Myxococcus xanthus Mutual gliding motility A, MxMglA(His6) (Myxococcus xanthus) (UniProt Q1DB04); assay: fluorescence polarisation; fluorescence anisotropy of 400 nM mant-GppNHp (m-GNP) mixed with 2 μM MxMglA or its mutant, titrated with MxMglB or MxMglB^ΔCt (concentration as MglB dimer); one site-specific binding fit
[2] = target: T1, Myxococcus xanthus Mutual gliding motility B, full-length MxMglB(His6) (Myxococcus xanthus), Q1DB03; assay: crystal structure; MxMglA and MxMglB mixed 1:1 (MglB as monomer), 4 mg/ml each, in A50 buffer with 5 mM MgCl2 and 2 mM GTPγS; PEG 4000 or PEG 3350 with 200 mM ammonium sulphate; settings: remark: other sources report otherwise
T1 chain: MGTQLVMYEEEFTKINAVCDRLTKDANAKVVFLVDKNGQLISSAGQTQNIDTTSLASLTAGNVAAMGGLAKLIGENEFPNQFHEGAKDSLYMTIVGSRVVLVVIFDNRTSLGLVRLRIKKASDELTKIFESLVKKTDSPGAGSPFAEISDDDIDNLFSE

[3] = target: T2, MxMglA^L, MxMglA L64A and I67A double mutant (Myxococcus xanthus, UniProt Q1DB04 1-195, L64A | I67A); assay: fluorescence polarisation; fluorescence anisotropy of 400 nM mant-GppNHp (m-GNP) mixed with 2 μM MxMglA or its mutant, titrated with MxMglB or MxMglB^ΔCt (concentration as MglB dimer); one site-specific binding fit; settings: both partners purified
T2 construct: MglA of Myxococcus xanthus with L64A and I67A (β2-β3 loop, interswitch region); Mutant of m1; source: E. coli BL21-DE3, purified (protocol similar to MxMglA(His6))
T2 sequence: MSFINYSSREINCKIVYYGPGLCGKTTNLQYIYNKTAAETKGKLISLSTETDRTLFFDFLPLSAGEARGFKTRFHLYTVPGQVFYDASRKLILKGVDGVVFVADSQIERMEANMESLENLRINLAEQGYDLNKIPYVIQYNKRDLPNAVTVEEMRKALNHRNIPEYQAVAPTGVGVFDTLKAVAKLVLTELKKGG

[4] = target: T3, MxMglA^Q82L, active site mutant of MxMglA (Myxococcus xanthus, UniProt Q1DB04 1-195, Q82L); assay: as above; settings: both partners purified
T3 construct: MglA of Myxococcus xanthus with Q82L (active site); Mutant of m1; source: E. coli BL21-DE3, purified (protocol similar to MxMglA(His6))
T3 sequence: T2 sequence with A64L, A67I, Q82L

[5] = target: T4, MxMglA^K, MxMglA K181A and K185A double mutant (Myxococcus xanthus, UniProt Q1DB04 1-195, K181A | K185A); assay: as above; settings: both partners purified
T4 construct: Mutant of m1; source: E. coli BL21-DE3, purified (protocol similar to MxMglA(His6))
T4 sequence: T2 sequence with A64L, A67I, K181A, K185A

[6] = target: T5, Myxococcus xanthus Mutual gliding motility A, MxMglA(His6) (Myxococcus xanthus, UniProt Q1DB04 1-195); assay: as above; settings: both partners purified
T5 construct: MglA, small Ras-like GTPase of Myxococcus xanthus; gene mglA amplified from genomic DNA (DSMZ 16526) and cloned into pHis17 between NdeI and BamHI; In the assays it carried m-GDP, m-GNP (mant-GppNHp) or GTPγS; source: E. coli BL21-DE3, purified (HisTrap, Superdex75); not shown: His6, C-terminal, kept
T5 sequence: T2 sequence with A64L, A67I

[7] = target: T5, Myxococcus xanthus Mutual gliding …; assay: fluorescence polarisation; fluorescence anisotropy of 400 nM mant-GDP (m-GDP) mixed with 2 μM MxMglA or its mutant, titrated with MxMglB or MxMglB^ΔCt (concentration as MglB dimer); one site-specific binding fit; settings: both partners purified
[8] = target: T5, Myxococcus xanthus Mutual gliding …; assay: crystal structure; MxMglA and MxMglB mixed 1:1 (MglB as monomer), 4 mg/ml each, in A50 buffer with 5 mM MgCl2 and 2 mM GTPγS; PEG 4000 or PEG 3350 with 200 mM ammonium sulphate; settings: both partners purified

## MxMglB^ΔCt(His6), truncated MxMglB lacking the C-terminal helix (domain or fragment)
[1]
  Kd: 290 nM

B1: Myxococcus xanthus Mutual gliding motility B, full-length MxMglB(His6) (natural protein, UniProt Q1DB03 1-159, looked up)
chain: T1 chain
notes: Rbl/LC7 core residues 10-131, Ct-helix residues 147-157; also called MglB1 and MglB2 (the two protomers in the crystal); source: E. coli BL21-AI, purified (HisTrap, Superdex75); not shown: His6, C-terminal, kept
[2]
  stoichiometry N: 2
[3]
  binding result: binds
[4]
  binding result: binds
[5]
  binding result: binds
[6]
  Kd: 100 ± 40 nM
[7]
  Kd: 120 ± 30 nM

B2: selenomethionine-labeled MxMglB^I148M (natural protein, Myxococcus xanthus)
chain: T1 chain with I148M
modifications: selenomethionine-labeled
notes: MglB of Myxococcus xanthus with Ile148 mutated to methionine; construct without histidine tag; Made to confirm the registry of the Ct-helix; Probably a point mutant of full-length MglB
[8]
  binding result: binds

B3: selenomethionine-labeled MxMglB^L156M (natural protein, Myxococcus xanthus)
chain: T1 chain with L156M
modifications: selenomethionine-labeled
notes: MglB of Myxococcus xanthus with Leu156 mutated to methionine; construct without histidine tag; Made to confirm the registry of the Ct-helix; Probably a point mutant of full-length MglB
[8]
  binding result: binds
